From the supplement of paper PMC11502859

Tested on: HEK293T
Assay: median enrichment of reporter reads in eGFP-reduced (low/intermediate) vs eGFP-high sorted cells (eGFP-extension fusion abundance) (ratio); higher = stronger loss of eGFP-fusion protein abundance (more destabilising extension)
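Note: lentiviral eGFP-IRES-mCherry reporter pool sorted by FACS 96 h post-transduction, gated on mCherry-high cells, Illumina read counts normalized per million, median across four biological replicates.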

Row | Substance | median enrichment
1 | KQIKLDEIYNYLIAQ [MDH1B] | 18.9
2 | KQP [PSG11] | 0.269
3 | KQQPV [DPPA2] | 0.433
4 | KQRRWTFCSNVYMYRIVHTSNSEDLYL [SLC10A7] | 6.06
5 | KQWQQLGLETSRWCWDHLSLLLLASHSL [PACRG] | 7.92
6 | KRASTSEWPHLCPRC [NUMA1] | 0.399
7 | KRGCGSQGGLQGTGMSGGHQAQRKRKQREFTGPPEKSQSDVCRHLPIPASLARALLGPEQRRTCPTHTAIYSSRHRAPLPYSW [CRHR2] | 4.02
8 | KRGTGGRGRGVLHEMLMLSVISGESV [FAM98C] | 7.54
9 | KRKLKNGCLELVLQLL [REG1B] | 6.65
10 | KRL [CYP17A1] | 0.493
11 | KRQK [CCR2] | 0.621
12 | KRRIYVLFKQEKVTLPMLSPLHNI [CDH10] | 4.44
13 | KRTQPPSAQREATSQPRGGRIRKQSHS [CCK] | 0
14 | KRYPLNIFVEVSYLYQRLGLPI [C7orf25] | 15.9
15 | KSFPLTLLQIGL [PTHLH] | 19.8
16 | KSIIILQHLRVWQLFVWAFAHAMPSLPSPTPTRGDS [SPATA12] | 8.97
17 | KSTSSHETE [UNC5D] | 1.07
18 | KSYLSLSNGMKLDNFKKLSRTKGERNTCSFSCN [KLHL4] | 5.48
19 | KTAPPTSVQAGRSP [NCAPD3] | 7.59
20 | KTCIHFLQTI [BACH1] | 2.97
21 | KTIQKRNQFFPQSIQCLEY [HEATR3] | 5.13

Row | Substance | median enrichment
22 | KTKAKYIDFTVILKYNKNC [IL26] | 5.5
23 | KTNKMRSSLWSFNSLMQIKTQTSLQALAYYSCIKNFGWGDLGA [MTRNR2L7] | 7.22
24 | KTQMRASLRLPETARPKSQVQSFPTPLKFIVSSREKQIPIHPTNRCIVWVLEVPSKLLLVRLG [PPEF1] | 14.2
25 | KTTFPKENIRGFHC [CPVL] | 0.477
26 | KVCRSQ [KRTAP11-1] | 3.09
27 | KVKP [TRPC5] | 0.338
28 | KVPMSQPGLWLPSIPSPEMAPWDEEGRVGCWCRIKIWQDRLPQGHRPLPPTRTPPTQLPLRVL [ITGA7] | 17.1
29 | LAAGVAMMGWSSLGQGVLGPTPTPPPRHHFPSRFLRLDLGSPLPVMHSCPGPTSPSLTSLELWPPRKGPIQPRLFTEVVLFMK [SCN1B] | 4.89
30 | LAAHPASSHVVWEQRDSHLRGGV [RASAL3] | 2.07
31 | LAASRATSPHVGCPSWGREGQSVGWLGRGLALVGQPTPQPERA [RBM10] | 8.96
32 | LAAWDRSTNYTGSGIRVSKMSYECRSEGHMLTLESVER [NLRP7] | 13.6
33 | LACPFCPVGPQAHSGVTEA [TLX1] | 6.73
34 | LADI [MED30] | 0.335
35 | LADP [AKAP4] | 0.662
36 | LAEDPADPYLEEEEKQERESHSQPAIGSNWTTCGMDLETSTSPNTSPLPRAGPVHALP [CYFIP2] | 1.33
37 | LAEEVGMGALCLLC [FGA] | 11.4
38 | LAFRLALAPGTRSPRAPGPLPAPAAPSPSPGCVSLPMTLSWGPPARPGTFLPNPQTHDSLPHRLPQRPPTHFILSGHPSDLDP [SCRT2] | 3.18
39 | LAGAAGVPPAPGPWVSAARPPPVPAVLSVHWGPSVVPFVENLLHKALLNCLELGTSIPMETSPVWGTWRICQRLSDMGPWQFY [NYNRIN] | 6.95
40 | LAGVFVPVSLILSRH [KCNS3] | 5.72
41 | LAGWDHPPAPQLHALP [INSYN2B] | 0.774
42 | LAHEPTRMSSDFQPHPSGSCAKGGGRR [TREM1] | 0.974

Row | Substance | median enrichment
43 | LAHPKYACHLRPQAGHTGQPACRQDLPASSSQYSLQRLKCEAPAPPSALQPTGPGRTCPLSVSPSRVPRWRPLSTG [PAK6] | 3.88
44 | LALLSRWGLPETVCFVSPTTITATWLLPCGRRVTG [SF3B3] | 34.6
45 | LALYLGSGQELHLGTNSC [ABCF2] | 6.15
46 | LANAS [NXF1] | 0.411
47 | LAPASGLAIPLLSADYGVSTFGHNTYSPFTLYHSATNHRTDHLRLFLLALCVQDSLIHFCW [GIGYF2] | 35.9
48 | LAPLGLEFATGRILQRQVVPGPLLHPFSRRPCQRLHPVVNLVWRQRLRGWTSIVGQGLTLQGFCSWLWTPENPLLPSPNTRFL [FAM110A] | 6.38
49 | LAPRAEKMLGTHPAPPSTNTSGWGRGRTL [VPS26B] | 1.3
50 | LAPRPRETGWRHGAGPSFHGACGCRAGGAAESGPGPLPAGGDFFFSYF [GNA11] | 11.8
51 | LAQLPLSYSSATPQLPLSPAAARATARPGLSSARLTSARPAGLLKAVGRTPA [MED16] | 5.35
52 | LARAPRGHLGRPREAEGHGVGGSRRVPASMVPALDLQLP | 5.4
53 | LARAPSGGITDLMTTLALLPCRVQVLSPHFHLPAPRGPFPFMGLPPSDAQEGSSAMTGLLPLTSREHPLDLGRWWSQGWAAYF [PCDH1] | 6.44
54 | LASCGPGNEMELTA [TSSK1B] | 1.49
55 | LASDLPNDLLLAQLDARQARLSLC [BNC2] | 4.33
56 | LATATALPVRQAPKGGGGMAQEEGCEEEEGEMAVASGSALQL [FAM228A] | 0.27
57 | LATWRNCLCTGCGPTLSS [MED12] | 15.1
58 | LAVGAHHLPDSQRENNLAKPIFDTGTFSSQFSLFSQKMI [C1orf105] | 12.7
59 | LAVWAPRGLALLPGLGEPRAALPWQRQDVGERSLVQ [GRK6] | 3.3
60 | LAWDTEGPVRSIYCNSNCNLVLRRRESMFGQQNFSLSLKFTASISFPY [NUPR2] | 7.51
61 | LAWN [CLRN1] | 0.652
62 | LAYLLVFVLKCDLRFNV [TMEM70] | 9.39
63 | LCDCSKLWCKIPPVSSHLPDFYLGLARTSSPSYQPSLPPSSHWTPALALPLG [LY6G5C] | 3.74

Row | Substance | median enrichment
64 | LCFAEIFCSLRISETYL [SIM1] | 7.43
65 | LCLI [UBP1] | 3.44
66 | LCT [DUSP22] | 1.23
67 | LDAIWIWGLGVCVGGGIKWLWAGLSFPTAGCHIYTISLVRFLYKNLLLT [LSMEM2] | 15.5
68 | LDALAMAQEKPARKNQTDFHTKEEASIFFFLFFIGVVTKPFRLLLFKI [QRICH1] | 10.6
69 | LDFMHSSERVTVTTVLSPISHKLLFVSKRMLLLLHCFPFAGTCWCLLLNWPALLAVWHCSLGRLLCSLYLHYRLVNLPTSSL [DCUN1D4] | 4.52
70 | LDLVQHGNDSYRLIQQLTLRQVVLFQRPLFLPKPCYELNQMCQVFSGVLSNILFSCMGTSPLQMTMLMDLFIYLFKSLFS [IFNA8] | 6.11
71 | LDPQVPLSKAENVHIPHWHFPKDKNCPRHILSV [VSX1] | 10
72 | LDRKEYERAIHHQTAHTGEK [ZNF573] | 0.396
73 | LDRTCLRGRRTLAWAQESEAAFLLRGPSGESGPRYHARTLRGPVSCRRVSTFPPNPGLTALRSARRARAETRVGCGELKEPIK [UQCC3] | 3.74
74 | LDRTWEPGGWEGQG [SLC35G6] | 0.429
75 | LDVQDL [ZMPSTE24] | 0.209
76 | LECRSAGRREE [CNPY1] | 12.4
77 | LECSPFPCPGWQGRGRVKGMCCNTEDRKKKPLDTARDGG [ORMDL3] | 48.4
78 | LEHWDAHRPFPSAARRACCGIYCGEHCIGMSGKSLYNLLQPSHLYNSLILFSFHNKMVYKNRSVCDVIGSNHPVLSSHSSW [COX10] | 1.73
79 | LEIEKKKRISTQVFFFRNEDKI [ZNF24] | 2.65
80 | LEIPGFSDGPI [SLC39A2] | 0.676
81 | LEIWRIF [RNF148] | 9.09
82 | LEKAIWDLITLNRHANTVCVRALCIQ [PCDH9] | 9.37
